T1: recombinant human FGFR3 IIIc Fc fusion protein (human, UniProt P22607 23-375)
T1 construct: Bought reagent; also called rhFGFR3 IIIc Fc; not shown: Fc fragment (removable by Factor Xa)
T1 sequence (looked up): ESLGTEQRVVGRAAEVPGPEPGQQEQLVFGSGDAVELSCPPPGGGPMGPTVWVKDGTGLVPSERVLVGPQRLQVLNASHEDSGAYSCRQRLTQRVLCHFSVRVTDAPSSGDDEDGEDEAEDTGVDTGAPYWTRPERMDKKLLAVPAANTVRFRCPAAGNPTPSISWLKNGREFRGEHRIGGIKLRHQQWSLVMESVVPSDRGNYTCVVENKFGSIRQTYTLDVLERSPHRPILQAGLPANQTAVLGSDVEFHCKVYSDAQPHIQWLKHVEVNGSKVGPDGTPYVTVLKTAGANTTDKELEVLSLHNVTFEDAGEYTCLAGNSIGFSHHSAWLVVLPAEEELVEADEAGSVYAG


Target: T1, recombinant human FGFR3 IIIc Fc fusion …
Experiment: kinetic exclusion assay (KinExA), antibody and rhFGFR3 IIIc Fc in solution, room temperature
Method: The binding affinities of monoclonal 15D8, chimeric 15D8, and humanized 15D8 antibodies for recombinant human FGFR3 IIIc Fc fusion protein was measured using a kinetic exclusion assay, KinExA® technology (Sapidyne Instruments, Inc.). First, beads were prepared for the purpose of detecting anti-FGFR3 antibody that is unbound to FGFR3 IIIc Fc. This was done by adding 1 ml recombinant human FGFR3IIIc Fc (R&D Systems, Inc.) 10 ug/ml in PBS to 200 mg polymethyl methacrylate (PMMA) hard beads. The suspension was mixed and rotated for two hours at room temperature. Next, the mixture was centrifuged and supernatant was discarded. The bead pellet was rinsed once with 1 ml BSA 10 mg/ml in PBS by incubation for 1 hour at room temperature with rotation. The beads were resuspended in 27 ml PBS with 0.02% NaN₃. Next, a fixed concentration of anti-FGFR3 antibody (0.5 nM) was incubated in solution with a series of FGFR3 IIIc Fc concentrations (started with 50 nM (in PBS BSA (1 mg/ml)) and serially diluted 1:2 in PBS BSA(1 mg/ml) to obtain 50 to 0.0122 nM FGFR3 III Fc) at room temperature for at least 4 hours to allow equilibrium to be reached. By measuring the amount of anti-FGFR3 antibody that is not bound to FGFR3 IIIc Fc, the KD was determined. Unbound anti-FGFR3 antibody was detected by allowing the anti-FGFR3 antibody/FGFR3 IIIc Fc solution to flow through the FGFR3 IIIc Fc PMMA beads. The anti-FGFR3 antibody captured by these beads was then detected with Cy5-conjugated anti-human secondary antibody 0.3 ug/ml (Jackson ImmunoResearch) or Cy5-conjugated anti-mouse secondary antibody (Jackson ImmunoResearch) 0.5 ug/ml in PBS BSA 1 mg/ml. The detected signal for captured anti-FGFR3 antibody is directly proportional to the remaining free binding sites, thus allowing KD determination. The experiments were repeated, varying the concentrations of anti-FGFR3 antibody or FGFR3 III Fc used in solution, and the KD was calculated with the KinExA® software using n-curve analysis.

| Kd | Binder |
| --- | --- |
| 77.2 pM | Humanized 15D8 (antibody, human IgG1, kappa, V domains shown, Humanized variable regions with human IgG1 and human kappa constant regions; made in 293T cells; also called Hu15D8; humanized 15D8 antibody) VH: EVQLVQSGAEVKKPGESLKISCKGSGYSFTSYNMYWVRQMPGKGLEWMGYIDPYNGGTSYNQKFKGKATLTVDKSISTAYLQWSSLKASDTAMYYCAREGGNYEAWFAYWGQGTLVTVSS VL: DIQLTQSPSSLSASVGDRVTITCSASSSVSYMYWFQQKPGKAPKPLIYLTSYLASGVPSRFSGSGSGTDFTLTISSLQPEDFATYYCQQWSSYPLTFGGGTKVEIKR |
| 50.3 pM | Chimeric 15D8 (antibody, human IgG1, kappa, Mouse variable regions with human IgG1 and human kappa constant regions; made in 293T cells; also called chimeric 15D8 antibody) heavy: not shown light: QIVLTQSPALMSASPGEKVTMTCSASSSVSYMYWYQQKPRSSPKPWIYLTSYLASGVPARFSGSGSGTSYSLTISSMEAEDAATYYCQQWSSYPLTFGAGTKLELKRTVAAPSVFIFPPSDEQLKSGTASVVCLLNNFYPREAKVQWKVDNALQSGNSQESVTEQDSKDSTYSLSSTLTLSKADYEKHKVYACEVTHQGLSSPVTKSFNRGEC |
